Measured values reported in PMC4789156 (Translational research : the journal of laboratory and …, 2015).

Biological target: Recombinant human Smad2 with C-terminal MYC/DDK tag (human, UniProt Q15796-1 1-467)
Assay: co-IP

Recombinant human Smad2 with C-terminal MYC/DDK tag, sequence (Q15796 whole entry): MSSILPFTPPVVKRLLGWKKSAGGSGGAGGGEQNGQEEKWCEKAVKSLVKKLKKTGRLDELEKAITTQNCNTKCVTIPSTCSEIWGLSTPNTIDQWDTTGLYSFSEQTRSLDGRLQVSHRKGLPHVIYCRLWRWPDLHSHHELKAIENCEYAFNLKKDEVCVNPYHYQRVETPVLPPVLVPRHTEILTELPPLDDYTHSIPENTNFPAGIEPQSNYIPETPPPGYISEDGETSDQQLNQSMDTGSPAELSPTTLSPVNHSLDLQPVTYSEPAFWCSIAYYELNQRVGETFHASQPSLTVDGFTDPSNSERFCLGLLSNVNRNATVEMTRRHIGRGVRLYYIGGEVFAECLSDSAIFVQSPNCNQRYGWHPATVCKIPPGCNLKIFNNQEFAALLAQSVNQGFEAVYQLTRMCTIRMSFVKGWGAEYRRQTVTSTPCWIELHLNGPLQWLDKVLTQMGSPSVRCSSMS

TRPASFWETS [M10 peptide (caspase-3 cleavage product of the hepatocyte growth factor receptor MET)]
binding result: binds
